# Laboratory results as given in patent US20090028889A1, “Novel Polypeptide Ligands For Toll-Like Receptor 2 (TLR2)” (VAXINNATE CORPORATION, priority 2005, published 2009).
# Molecular target: human TLR2 (hTLR2) (human) (UniProt O60603)
# Assay: T7 phage display biopanning, 4 rounds, on 293.hTLR2 cells after negative panning on parental HEK293; percent of 109 sequenced clones
# Settings: not given
# Sequence of human TLR2 (hTLR2) (human) (O60603 21-784 limits assumed): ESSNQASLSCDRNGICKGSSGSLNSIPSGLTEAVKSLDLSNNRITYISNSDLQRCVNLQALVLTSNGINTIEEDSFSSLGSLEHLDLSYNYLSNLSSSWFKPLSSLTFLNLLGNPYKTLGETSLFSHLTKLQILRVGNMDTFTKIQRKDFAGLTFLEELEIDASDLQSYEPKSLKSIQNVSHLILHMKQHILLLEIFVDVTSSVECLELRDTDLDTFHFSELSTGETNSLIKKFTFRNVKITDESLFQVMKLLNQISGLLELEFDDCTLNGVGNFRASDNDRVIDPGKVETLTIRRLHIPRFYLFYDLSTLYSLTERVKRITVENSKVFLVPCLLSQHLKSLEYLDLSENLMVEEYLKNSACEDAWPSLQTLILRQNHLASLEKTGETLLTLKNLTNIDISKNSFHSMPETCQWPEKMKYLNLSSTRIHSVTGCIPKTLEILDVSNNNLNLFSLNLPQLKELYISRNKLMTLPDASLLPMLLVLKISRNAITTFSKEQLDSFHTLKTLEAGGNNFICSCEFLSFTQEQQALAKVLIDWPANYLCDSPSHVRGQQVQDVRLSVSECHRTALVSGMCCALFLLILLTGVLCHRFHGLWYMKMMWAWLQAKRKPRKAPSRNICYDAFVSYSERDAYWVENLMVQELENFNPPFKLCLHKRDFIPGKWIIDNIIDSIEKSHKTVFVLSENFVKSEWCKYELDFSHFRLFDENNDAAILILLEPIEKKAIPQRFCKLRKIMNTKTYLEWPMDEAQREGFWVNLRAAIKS
row,Substance,% ABUNDANCE [%]
1,ACGVY (T7 phage-displayed peptide),0.92
2,ADTHQ (T7 phage-displayed peptide),0.9
3,AGCFS (T7 phage-displayed peptide),0.92
4,AVRLS (T7 phage-displayed peptide),0.92
5,AWAGT (T7 phage-displayed peptide),0.9
6,CGPKL (T7 phage-displayed peptide),0.92
7,CVWLQ (T7 phage-displayed peptide),0.9
8,EVCAP (T7 phage-displayed peptide),0.92
9,FCGLG (T7 phage-displayed peptide),0.92
10,GGKLS (T7 phage-displayed peptide),0.92
11,GPLLH (T7 phage-displayed peptide),0.9
12,HLLPG (T7 phage-displayed peptide),0.9
13,IGRFR (T7 phage-displayed peptide),2.7
14,IHVVP (T7 phage-displayed peptide),0.9
15,IMRHP (T7 phage-displayed peptide),0.92
16,IMWFP (T7 phage-displayed peptide),0.9
17,IYKLA (T7 phage-displayed peptide),0.9
18,KCQSF (T7 phage-displayed peptide),0.92
19,KGWF (T7 phage-displayed peptide),0.9
20,KYMPH (T7 phage-displayed peptide),0.9

row,Substance,% ABUNDANCE [%]
1,LRQGR (T7 phage-displayed peptide),0.9
2,MFGVP (T7 phage-displayed peptide),0.9
3,MGTLP (T7 phage-displayed peptide),1.8
4,MISS (T7 phage-displayed peptide),0.92
5,MRRIL (T7 phage-displayed peptide),0.92
6,NPPTT (T7 phage-displayed peptide),0.92
7,NRFGL (T7 phage-displayed peptide),0.92
8,NRTVF (T7 phage-displayed peptide),0.92
9,NYRRW (T7 phage-displayed peptide),0.9
10,PESGV (T7 phage-displayed peptide),0.92
11,RGGF (T7 phage-displayed peptide),0.92
12,RGGSK (T7 phage-displayed peptide),3.67
13,RVVAP (T7 phage-displayed peptide),0.9
14,SGGLF (T7 phage-displayed peptide),0.92
15,SHIAL (T7 phage-displayed peptide),0.9
16,SRHGR (T7 phage-displayed peptide),0.92
17,THKPK (T7 phage-displayed peptide),0.9
18,VGKND (T7 phage-displayed peptide),0.9
19,VSEGV (T7 phage-displayed peptide),3.67

# Molecular target: T1, TLR2 (Homo sapiens, UniProt O60603)
# Assay: NF-κB-dependent luciferase reporter assay, parental 293 vs 293.hTLR2 cells
# Assay type: cell-based
# Design: host or cells: HEK293 (293.luc, stably carrying κB-LUC reporter)
# Settings: 293.hTLR2 vs parental 293 cells, four to five hours at 37° C.
# Experimental: NF-κB-dependent luciferase reporter assay: Parental 293 cells and 293.hTLR2 cells (see Example 1, above) were incubated with an aliquot of test peptide four to five hours at 37° C. NF-κB-dependent luciferase activity was measured using the Steady-Glo Luciferase Assay System by Promega (E2510), following the manufacturer's instructions. Luminescence was measured on a microplate luminometer (FARCyte, Amersham) and expressed as relative luminescence units (RLU) after subtracting the background reading obtained by exposing cells to the DMEM medium alone.
# The biological activity of the TLR2-binding peptides isolated by the screening method was confirmed using the isolated peptides in an NF-κB-dependent reporter gene assay. For this assay, a synthetic monomer of the DPDSG motif (SEQ ID NO: 5), or a concatemerized copy (DPDSG)5, was incubated on parental HEK293 cells containing an NF-κB-dependent luciferase reporter construct (293) and on TLR2-overexpressing HEK293 cells containing an NF-κB-dependent luciferase reporter construct (293.hTLR2, see Example 1, above). Luciferase activity was then measured. […] Thus, the TLR2-binding peptides identified by the screening assay are functional peptide TLR2 ligands.
# Target sequence in this assay (O60603 21-784): as the sequence (O60603 21-784 limits assumed) above
row,Substance,luciferase reporter gene expression
1,"(DPDSG)5: concatemerized copy of the DPDSG motif, made by solid phase synthesis (DPDSGDPDSGDPDSGDPDSGDPDSG)",activated luciferase reporter gene expression in a TLR2-dependent manner
2,DPDSG: peptide TLR2 ligand from phage display; also made as synthetic monomer,activated luciferase reporter gene expression in a TLR2-dependent manner

# Molecular target: T1, TLR2
# Assay: not given
# Settings: cited from earlier work
# Target sequence in this assay (O60603 21-784, species assumed): as the sequence (O60603 21-784 limits assumed) above
row,Substance,activation of monocytes and epithelial cells via TLR2 signaling
1,ALTTE,activate monocytes and epithelial cells via TLR2 signaling
